In assay [1] the target is mCherry-RXR (retinoid X receptor alpha, N-terminally tagged with mCherry) (UniProt P19793).
Assay [2] deals with TagBFP-RXR (retinoid X receptor alpha tagged with TagBFP) (UniProt P19793).
Assay [3] has as its target T1, mCherry-RXR (retinoid X receptor alpha, N-terminally tagged with mCherry) (UniProt P19793 1-462).
T1 sequence (looked up): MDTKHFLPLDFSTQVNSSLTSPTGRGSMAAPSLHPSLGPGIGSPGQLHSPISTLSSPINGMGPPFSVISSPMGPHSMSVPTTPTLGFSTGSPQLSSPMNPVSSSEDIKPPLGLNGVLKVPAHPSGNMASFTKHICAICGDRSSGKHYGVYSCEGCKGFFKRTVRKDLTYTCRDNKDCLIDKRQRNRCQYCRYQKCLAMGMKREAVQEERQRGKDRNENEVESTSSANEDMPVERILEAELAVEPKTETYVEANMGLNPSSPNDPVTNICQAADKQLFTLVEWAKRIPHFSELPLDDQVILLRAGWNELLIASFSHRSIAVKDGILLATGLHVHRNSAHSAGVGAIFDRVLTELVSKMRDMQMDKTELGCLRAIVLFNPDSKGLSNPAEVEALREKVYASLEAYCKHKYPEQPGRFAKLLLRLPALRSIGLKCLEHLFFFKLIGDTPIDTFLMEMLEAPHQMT
The experiment in a line: cell-based or functional assay.

B1: EGFP-RAR (retinoic acid receptor alpha, N-terminally tagged with EGFP) (receptor)
chain: MASNSSSCPTPGGGHLNGYPVPPYAFFFPPMLGGLSPPGALTTLQHQLPVSGYSTPSPATIETQSSSSEEIVPSPPSPPPLPRIYKPCFVCQDKSSGYHYGVSACEGCKGFFRRSIQKNMVYTCHRDKNCIINKVTRNRCQYCRLQKCFEVGMSKESVRNDRNKKKKEVPKPECSESYTLTPEVGELIEKVRKAHQETFPALCQLGKYTTNNSSEQRVSLDIDLWDKFSELSTKCIIKTVEFAKQLPGFTTLTIADQITLLKAACLDILILRICTRYTPEQDTMTFSDGLTLNRTQMHNAGFGPLTDLVFAFANQLLPLEMDDAETGLLSAICLICGDRQDLEQPDRVDMLQEPLLEALKVYVRKRRPSRPHMFPKMLMKITDLRSISAKGAERVITLKMEIPGSMPPLIQEMLENSEGLDTLSGQPGGGGRDGGGLAPPPGSCSPSLSPSSNRSSPATHSP
B1: in assay [1], the slow (DNA-bound) fraction ρ2 of EGFP-RAR by FCS in live HEK293 cells cotransfected with mCherry-RXR, no ligand (∼22% for EGFP-RAR alone) came out at 0.38.

B2: EGFP-VDR (vitamin D receptor, N-terminally tagged with EGFP) (receptor, UniProt P11473 1-427, looked up)
chain: MEAMAASTSLPDPGDFDRNVPRICGVCGDRATGFHFNAMTCEGCKGFFRRSMKRKALFTCPFNGDCRITKDNRRHCQACRLKRCVDIGMMKEFILTDEEVQRKREMILKRKEEEALKDSLRPKLSEEQQRIIAILLDAHHKTYDPTYSDFCQFRPPVRVNDGGGSHPSRPNSRHTPSFSGDSSSSCSDHCITSSDMMDSSSFSNLDLSEEDSDDPSVTLELSQLSMLPHLADLVSYSIQKVIGFAKMIPGFRDLTSEDQIVLLKSSAIEVIMLRSNESFTMDDMSWTCGNQDYKYRVSDVTKAGHSLELIEPLIKFQVGLKKLNLHEEEHVLLMAICIVSPDRPGVQDAALIEAIQDRLSNTLQTYIRCRHPPPGSHLLYAKMIQKLADLRSLNEEHSKQYRCLSFQPECSMKLTPLVLEVFGNEIS
Turning to B2, in assay [2], the slow fraction ρ2 of EGFP-RAR by FCS in triple-transfected cells (EGFP-RAR, mCherry-VDR, TagBFP-RXR), no ligand, against ρ2 ∼ 0.38 in cells with RAR and RXR only was found to be 0.32. In addition, the “slow (DNA-bound) fraction ρ2 of EGFP-VDR by FCS in live HEK293 cells, mCherry-RXR coexpressed and 100 nM calcitriol added together” value in assay [3] came out at 2 fold.

Source of the values: publication PMC9943875, “Agonist-controlled competition of RAR and VDR nuclear receptors for heterodimerization with RXR is manifested in their DNA binding” (The Journal of Biological Chemistry, 2023).
